In paper PMC11151058, “The Transpeptidase Sortase A Binds Nucleic Acids and Mediates Mammalian Cell Labeling”:

Tests used:
5M SrtA = 5M SrtA (Staphylococcus aureus, UniProt Q2FV99 60-206, P94R;D160N;D165A;K190E;K196T); test: band shift, SDS western blot; Western-blot shift: 10 uM protein, 20 uM oligo, HBSS, 37 C, 30 min (Fig 3D 10 min); EMSA: HBSS, 37 C, 30 min, 6% PAGE; MST: 20 mM HEPES, 300 mM NaCl, pH 6.8, 0.1% Tween 20, 25 C; conditions: protein: recombinant; tags: N-terminal 6xHis (pET-28a); label: 5'Biotin, 3'FITC
mgSrtA-R197A = mgSrtA-R197A (Staphylococcus aureus, UniProt Q2FV99 60-206, P94R;D124G;D160N;D165A;Y187L;E189R;K190E;K196T;R197A;F200L); test: as above; conditions: protein: recombinant; tags: N-terminal 6xHis (pET-28a); label: 5'Biotin, 3'FITC
mgSrtA-H120A = mgSrtA-H120A (Staphylococcus aureus, UniProt Q2FV99 60-206, P94R;H120A;D124G;D160N;D165A;Y187L;E189R;K190E;K196T;F200L); test: as above; conditions: protein: recombinant; tags: N-terminal 6xHis (pET-28a); label: 5'Biotin, 3'FITC
mgSrtA-L200F = mgSrtA-L200F (Staphylococcus aureus, UniProt Q2FV99 60-206, P94R;D124G;D160N;D165A;Y187L;E189R;K190E;K196T); test: as above; conditions: protein: recombinant; tags: N-terminal 6xHis (pET-28a); label: 5'Biotin, 3'FITC
mgSrtA-triple = mgSrtA-triple (Staphylococcus aureus, UniProt Q2FV99 60-206, P94R;H120A;D124G;D160N;D165A;C184A;Y187L;E189R;K190E;K196T;R197A;F200L); test: as above; conditions: protein: recombinant; tags: N-terminal 6xHis (pET-28a); label: 5'Biotin, 3'FITC
mgSrtA-mono = mgSrtA-mono (Staphylococcus aureus, UniProt Q2FV99 60-206, P94R;D124G;N132A;K137A;Y143A;D160N;D165A;Y187L;E189R;K190E;K196T;F200L); test: as above; conditions: protein: recombinant; tags: N-terminal 6xHis (pET-28a); label: 5'Biotin, 3'FITC
mgSrtA [1] = target: T1, mgSrtA (Staphylococcus aureus, UniProt Q2FV99 60-206, P94R;D124G;D160N;D165A;Y187L;E189R;K190E;K196T;F200L); test: as above; conditions: protein: recombinant, tags: N-terminal 6xHis (pET-28a), label: 5'Biotin
WTSrtA = WTSrtA (Staphylococcus aureus, UniProt Q2FV99 60-206); test: as above; conditions: protein: recombinant; tags: N-terminal 6xHis (pET-28a); label: 5'Biotin, 3'FITC
mgSrtA-C184A = mgSrtA-C184A (Staphylococcus aureus, UniProt Q2FV99 60-206, P94R;D124G;D160N;D165A;C184A;Y187L;E189R;K190E;K196T;F200L); test: as above; conditions: protein: recombinant; tags: N-terminal 6xHis (pET-28a); label: 5'Biotin, 3'FITC
mgSrtA [2] = target: T1, mgSrtA; test: band shift, SDS western blot; 1 uM oligo; Western-blot shift: 10 uM protein, 20 uM oligo, HBSS, 37 C, 30 min (Fig 3D 10 min); EMSA: HBSS, 37 C, 30 min, 6% PAGE; MST: 20 mM HEPES, 300 mM NaCl, pH 6.8, 0.1% Tween 20, 25 C; conditions: protein: recombinant; tags: N-terminal 6xHis (pET-28a); label: 5'Biotin
mgSrtA [3] = target: T1, mgSrtA; test: band shift, SDS western blot; 50 uM oligo; Western-blot shift: 10 uM protein, 20 uM oligo, HBSS, 37 C, 30 min (Fig 3D 10 min); EMSA: HBSS, 37 C, 30 min, 6% PAGE; MST: 20 mM HEPES, 300 mM NaCl, pH 6.8, 0.1% Tween 20, 25 C; conditions: protein: recombinant; tags: N-terminal 6xHis (pET-28a); label: 5'Biotin
mgSrtA [4] = target: T1, mgSrtA; test: band shift, SDS western blot; 20 uM oligo; Western-blot shift: 10 uM protein, 20 uM oligo, HBSS, 37 C, 30 min (Fig 3D 10 min); EMSA: HBSS, 37 C, 30 min, 6% PAGE; MST: 20 mM HEPES, 300 mM NaCl, pH 6.8, 0.1% Tween 20, 25 C; conditions: protein: recombinant; tags: N-terminal 6xHis (pET-28a); label: 5'Biotin

What does the source list for GGGG (ssDNA) [BF 4G]?
binding result (5M SrtA): binds; binding result (mgSrtA-R197A): binds; binding result (mgSrtA-H120A): binds; binding result (mgSrtA-L200F): binds; binding result (mgSrtA-triple): binds; binding result (mgSrtA-mono): binds; binding result (mgSrtA [1]; 3'FITC): binds; binding result (WTSrtA): binds; binding result (mgSrtA-C184A): binds

Does GGGGCGGGGTGGGGCGGGGT (ssDNA) [20G] bind (mgSrtA [2])?
Result: binds

Does GGGG (ssDNA) [4G (Fig S17)] bind (mgSrtA [1])?
Result: binds

Does GGGGGG (ssDNA) [6G] bind (mgSrtA [3])?
Result: binds

Does GGGGGGGG (ssDNA) [8G] bind (mgSrtA [4])?
Result: binds

Does GGGGCGGGGTGGGGC (ssDNA) [15G] bind (mgSrtA [2])?
Result: binds
